Target: T1, human P2X1 receptor, wild type subunit (human) (UniProt P51575)
T1 sequence: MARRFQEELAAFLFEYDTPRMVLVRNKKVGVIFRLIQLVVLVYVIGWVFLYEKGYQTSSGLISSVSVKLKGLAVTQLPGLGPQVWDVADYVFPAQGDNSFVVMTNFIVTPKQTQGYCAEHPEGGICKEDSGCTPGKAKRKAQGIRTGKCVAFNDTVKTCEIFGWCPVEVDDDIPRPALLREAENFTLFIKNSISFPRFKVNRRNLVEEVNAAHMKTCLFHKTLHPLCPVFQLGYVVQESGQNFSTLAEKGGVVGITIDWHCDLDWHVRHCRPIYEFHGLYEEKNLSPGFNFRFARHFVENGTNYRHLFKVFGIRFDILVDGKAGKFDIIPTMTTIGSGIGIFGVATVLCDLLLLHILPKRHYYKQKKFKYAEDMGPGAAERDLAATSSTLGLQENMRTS

- ATP (100 uM) evoked decrease in MTS-TAMRA fluorescence (voltage clamp fluorometry) in oocytes co-expressing WT and K68A-K190C subunits; neither homomer shows a fluorescence change: 3%
B1: human P2X1 receptor K190C-K68A double mutant subunit (receptor)
chain: MARRFQEELAAFLFEYDTPRMVLVRNKKVGVIFRLIQLVVLVYVIGWVFLYEKGYQTSSGLISSVSVALKGLAVTQLPGLGPQVWDVADYVFPAQGDNSFVVMTNFIVTPKQTQGYCAEHPEGGICKEDSGCTPGKAKRKAQGIRTGKCVAFNDTVKTCEIFGWCPVEVDDDIPRPALLREAENFTLFICNSISFPRFKVNRRNLVEEVNAAHMKTCLFHKTLHPLCPVFQLGYVVQESGQNFSTLAEKGGVVGITIDWHCDLDWHVRHCRPIYEFHGLYEEKNLSPGFNFRFARHFVENGTNYRHLFKVFGIRFDILVDGKAGKFDIIPTMTTIGSGIGIFGVATVLCDLLLLHILPKRHYYKQKKFKYAEDMGPGAAERDLAATSSTLGLQENMRTS
modifications: labelled with the cysteine reactive fluorophore MTS-TAMRA (K190C)
